Experimental data: patent US20020062008A1

Columns and labels:
[1] = biological target: two domain VCAM-1/Fc with substitution at residue 40 (UniProt P19320); assay: adhesion of αdβ2 CHO cells to immobilized mutant VCAM-1/Fc
[2] = biological target: recombinant VCAM-1 (commercial preparation, R & D Systems), immobilized (UniProt P19320); assay: cell-based or functional assay
immobilized CD11b/CD18 = immobilized CD11b/CD18 (UniProt P05107); assay: ELISA as printed: αd/CD18 and immobilized CD11b/CD18
[3] = biological target: soluble ICAM-R/IgG1 fusion protein (UniProt P32942); assay: ELISA, soluble integrin supernatant on immobilized ICAM-R/Ig, non-blocking antibody detection
Sequence of soluble ICAM-R/IgG1 fusion protein (P32942 30-485 limits assumed): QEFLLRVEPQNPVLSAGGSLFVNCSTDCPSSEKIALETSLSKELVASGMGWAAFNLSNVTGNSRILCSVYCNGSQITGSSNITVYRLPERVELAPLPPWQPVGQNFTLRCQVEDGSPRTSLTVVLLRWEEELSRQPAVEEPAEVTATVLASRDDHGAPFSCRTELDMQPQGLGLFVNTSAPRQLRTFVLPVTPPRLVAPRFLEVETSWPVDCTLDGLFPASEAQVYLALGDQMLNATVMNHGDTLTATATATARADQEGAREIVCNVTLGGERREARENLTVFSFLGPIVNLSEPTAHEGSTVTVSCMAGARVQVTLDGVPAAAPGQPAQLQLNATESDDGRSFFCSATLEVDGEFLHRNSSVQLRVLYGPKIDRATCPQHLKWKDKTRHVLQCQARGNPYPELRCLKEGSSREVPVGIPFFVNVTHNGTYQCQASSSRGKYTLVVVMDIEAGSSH

[4] = biological target: LFA-1 leucine zipper fusion protein (soluble CD11a/CD18) (UniProt P20701); assay: ELISA as printed: αd/CD18 and immobilized CD11a/CD18

Sequence of recombinant VCAM-1 (commercial preparation, R & D Systems), immobilized (P19320 25-698 limits assumed): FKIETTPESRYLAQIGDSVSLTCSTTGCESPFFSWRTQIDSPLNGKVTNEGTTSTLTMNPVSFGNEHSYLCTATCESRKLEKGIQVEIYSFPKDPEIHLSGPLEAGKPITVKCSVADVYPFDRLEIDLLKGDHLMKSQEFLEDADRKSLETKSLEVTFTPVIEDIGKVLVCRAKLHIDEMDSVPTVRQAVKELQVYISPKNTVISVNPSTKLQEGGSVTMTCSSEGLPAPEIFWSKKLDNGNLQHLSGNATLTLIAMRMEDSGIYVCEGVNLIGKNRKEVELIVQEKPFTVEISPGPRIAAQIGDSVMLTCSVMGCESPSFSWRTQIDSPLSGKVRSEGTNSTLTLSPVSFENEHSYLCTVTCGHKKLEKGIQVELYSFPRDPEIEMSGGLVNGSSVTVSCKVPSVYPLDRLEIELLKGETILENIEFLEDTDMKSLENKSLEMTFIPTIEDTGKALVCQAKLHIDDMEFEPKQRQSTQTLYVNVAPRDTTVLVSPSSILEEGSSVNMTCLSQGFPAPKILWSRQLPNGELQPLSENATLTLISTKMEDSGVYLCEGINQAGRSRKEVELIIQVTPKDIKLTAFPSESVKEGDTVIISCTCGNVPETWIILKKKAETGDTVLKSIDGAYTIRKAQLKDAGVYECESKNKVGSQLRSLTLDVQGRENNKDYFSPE
Sequence of two domain VCAM-1/Fc with substitution at residue 40 (P19320 25-220): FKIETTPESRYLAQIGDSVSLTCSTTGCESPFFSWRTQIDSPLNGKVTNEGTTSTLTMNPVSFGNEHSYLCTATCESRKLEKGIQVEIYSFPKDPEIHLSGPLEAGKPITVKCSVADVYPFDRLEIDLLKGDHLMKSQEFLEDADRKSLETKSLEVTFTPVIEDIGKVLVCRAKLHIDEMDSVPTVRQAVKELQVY

## human αd/CD18 heterodimer expressed on transfected cells (COS, CHO, JY) (from UniProt P05107 23-769) (receptor)
[1]
  binding relative to wild-type VCAM-1: 50%

## α4 integrins on human eosinophils (from UniProt P13612 34-1032; P05556 21-798) (receptor)
[2]
  binding rate of IL-5 cultured eosinophils to immobilized VCAM-1 in the presence of a monoclonal antibody against α4: 18.1%

## soluble human αd/CD18 leucine zipper heterodimer (from UniProt P05107 23-700) (receptor)
Immobilized CD11b/CD18
  fold greater than background binding: 15 fold
[3]
  fold greater than control well: 10 fold
[4]
  fold greater than background binding: 5 fold
